Laboratory results as given in the nanobody polyreactivity screen of Harvey et al. (2022).

Test: yeast display, Sf9 membrane polyspecificity reagent, FACS + sequencing; frameworks hold sequencing errors
In short: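 Sorting gates, low and high (top ~1%), were placed on anti-HA fluorescence to track expression and on streptavidin fluorescence to track reagent binding. A clone's polyreactivity label is taken from the gate it came out of. The reagent was 10% biotinylated, detergent-solubilized Sf9 membrane, applied for 1 hour at 4 °C to galactose-induced yeast display cells.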

For “QVQLVESGGGLVHAGGSLRLSCAASGSTFDPNAMGWYRQAPGKERELVAAISWSGGSTYYADSVKGRFTISRDNAKNTVYLQMNSQKPEYTAVYYCNAQFYVSYSYTNDYWGQGTQVTVSS”, which “polyreactivity (PSR sort gate)” value is on record?
The value was “low polyreactivity”.

Which “polyreactivity (PSR sort gate)” value does the source give for “QVQLVESGGGLVHAGGSLRLSCAASGSTFGYYAIGWNRQAPGKERELVAVITGSGGSTYYADSVKGRFTISRDYAKNTVYLQMNSLKPEDTAVYYCAARRWNPTYEYWGQGTQVTVSS” here?
Its value is “high polyreactivity”.

For “QVQLVESGGGLVHAGGSLRLSCAASGSTFHRYAMGWYRQAPGKERELVARINGSGGSTYYADSVKGRFTISRDNAKNSVYLQMNSLIPEDTAVYYCAAELDVYVSIGSRFHFDYWGQGTQVTVSS”, which “polyreactivity (PSR sort gate)” value is on record?
Its value is “low polyreactivity”.

With “QVQLVESGGGLVHAGGSLRLSCAASGSTFIRNAMGWYRQAPGKERELVAAISSSGGRTYYADSVKGRITISRDNAKNTVYVQMNSLKPEDTAVYYCAARYVPPWGRRYYYWGQGTQVTVSS” as the sequence, how does the “polyreactivity (PSR sort gate)” value read?
The value was “high polyreactivity”.

With “QVQLVESGGGLVHAGGSLRLSCAASGSTFPAYAMGWYRQAPGKERELVAGITRGGSTYYADSVKGRFTISRDNAKNTVYLQMNSLKPEDSAVYYCAAYVLPWRGRGQTEYGYWGQGTQVTVSS” as the sequence, how does the “polyreactivity (PSR sort gate)” value read?
The value was “low polyreactivity”.

With “QVQLVESGGGLVHAGGSLRLSCAASGSTFYYNAMGWNRPAPGKETELVARISRSGGSTYADSVKGRFTISRDNAKNTVYLQMNSLKPEDTAVYYCNADAYGTPEFTSYAVRYDYWGQGTQVTVSS” as the sequence, how does the “polyreactivity (PSR sort gate)” value read?
Its value is “low polyreactivity”.

For “QVQLVESGGGLVHAGGSLRLSCAASGSTYGGNAMGWYRQAPGKETELVASITRSGGSTYYADSVKGRFTISRDNAKNTVYLQMNSLKPEDTSVYYCAAGKWYRSPWKYDYWGQGTQVTVSS”, which “polyreactivity (PSR sort gate)” value is on record?
Its value is “low polyreactivity”.

With “QVQLVESGGGLVHAGGSLRLSCAASGTISAYAMGWYRPAPGKERELVAAISYSGGSTYYADSVKGRFTISRDNAKKTVYLQMNSLKPEDTAVYYCNARARWYYPYKTYYYWGQGTQVTVSS” as the sequence, how does the “polyreactivity (PSR sort gate)” value read?
Its value is “high polyreactivity”.

With “QVQLVESGGGLVHAGGSLRLSCAASGYTFQWYDMGWYRQAPGKERELVASISWRGGSTYYADSVKGRFTISRDHAKNTVYLQMNSLKPEDTAVYYCAASLWPDYEYDYWGQGTQVTVSS” as the sequence, how does the “polyreactivity (PSR sort gate)” value read?
The value was “low polyreactivity”.

For “QVQLVESGGGLVHAGGSLRLSCAASRFIFYYYALGWYRQAPGKERELVAVITSGGSTNYADSVKGRFTISRDNAKNTVYLQMNSLKPEDTAVYYCAARSRRRDDSWGQGTQVTVSS”, which “polyreactivity (PSR sort gate)” value is on record?
The value was “high polyreactivity”.

For “QVQLVESGGGLVHAGGSLRLSCAPSGFTLVSYAMGWHRKAPGKEREFDAGITDSGGSTYYADSVKGRYTITRDNAKNTFYLQMNSLKPVDTAVYYCKADFAPWDKQDYPYDYDYWGQGTQVTVSS”, which “polyreactivity (PSR sort gate)” value is on record?
Its value is “low polyreactivity”.

Which “polyreactivity (PSR sort gate)” value does the source give for “QVQLVESGGGLVHAGGSLRLSCASSGSIFYYYAMGWYRQAPGKERELVASITSSGGTTSYADSVKGRYTISRDNAKNTVYLLMNSLKPEDTAVYYCNAQVYRYRIGYDYWGQCTQVTVSS” here?
The value was “low polyreactivity”.

Which “polyreactivity (PSR sort gate)” value does the source give for “QVQLVESGGGLVHAGGSLRLSCDASGLIFYGYAMGWYRQAPGKERQLVADITYSGGRTYYADSVKGRFSISRDNAKNTVYFQMHSLKAEDTAVYYCNARHRSHSNSQPGWKYVYWGQGTQVTVSS” here?
The value was “low polyreactivity”.

For “QVQLVESGGGLVHAGGSLRLSCSASGSTLRFNAMGWYRQAPGKVREFVATITRRGGSTYYADSEKGRFTISRDNAKNTVYLQMNSLKPEDTAVYYCAADRGGYSVLGGYWGQGTQVTVSS”, which “polyreactivity (PSR sort gate)” value is on record?
Its value is “high polyreactivity”.

Which “polyreactivity (PSR sort gate)” value does the source give for “QVQLVESGGGLVHAGGSLRLSCSATRSIFLGNAMGWYRQAPGKERELVAAISRSGGSTYYADSVKGRFTISRDNAKNTVYLQMNSLKPEDTAVYYCAAVVSSRVKQFEYWGQGNQVTVSS” here?
The value was “high polyreactivity”.

For “QVQLVESGGGLVHAGGSLRVSCAASGIIFDGNAMGWYRQAPGKERELVAAITASGGSTHYADSVKGRFTISRDNAKNTVYLQMNSLKPEDTAVYYCNKRSRTTGDYDYWGQGTQVTVSS”, which “polyreactivity (PSR sort gate)” value is on record?
The value was “low polyreactivity”.

Which “polyreactivity (PSR sort gate)” value does the source give for “QVQLVESGGGLVHAGGSLSLSCAASGIIFPWYTMGWYRKAPGKERELVAAISSGGRTNYADSVKGRFTISRDNATNTVFLQMNSLKQEDTAVYYCGAKYYRDRDWGQGTQVTVSS” here?
Its value is “high polyreactivity”.

With “QVQLVESGGGLVHAGGSLSLSCAASGSIFPTNVMGWYRQAPGKERELVAAISANDGSTYYADSVKGRFTISRDNAKNTVYLQMNSLKPEDTAVYYCNQEGYTYRFTWYDYWGQGTQVTVSS” as the sequence, how does the “polyreactivity (PSR sort gate)” value read?
Its value is “low polyreactivity”.

With “QVQLVESGGGLVHAGGTLRLSCAASGSIFARYAMGWYRQAPVKERELVAAISRNGGSTYYADSVKGRFTISRDNAKNTVYLQMNSLNPEDTAVYYCAASYYVLYTREYDYWGQGSQVTVSS” as the sequence, how does the “polyreactivity (PSR sort gate)” value read?
Its value is “low polyreactivity”.

Which “polyreactivity (PSR sort gate)” value does the source give for “QVQLVESGGGLVHAVGSLRLSCAASGRTFISYAMGWYRQAPGKERELVAAISKYGGRTYYADSVKGRFTISRDNAKNTVYLQKISLKPEDTAVYYCAAVKTYLDYSSTSYDYWGQGTQVTVSS” here?
Its value is “high polyreactivity”.

With “QVQLVESGGGLVHDGRSLRLSCSASRRTYRLYAMGLYRQAPGQERELVAAITRGGRTNYADSVMGRFTISRDNAKNTVYLQMNSLKPEDTAVYYCADRYVERHTDYYYWGQGSQVTVSS” as the sequence, how does the “polyreactivity (PSR sort gate)” value read?
Its value is “low polyreactivity”.

For “QVQLVESGGGLVHSGGSLRLSCAASGSIFRRNAMGWYIQAPGKERELVAAISASGGRTYADSVKGRFTISRDNAKNTVYLQMNSLKPEDTAVYYCAVRSYWRVDYWGQGTQVTVSS”, which “polyreactivity (PSR sort gate)” value is on record?
Its value is “high polyreactivity”.

Which “polyreactivity (PSR sort gate)” value does the source give for “QVQLVESGGGLVKAGCSLRLRCAASGGTFSYYAMGLYRQAPGKERELVAAISRSSSRTYYADSVKGRFTISRDNAKNTVFLQMNSLKPEDTAVYYCAADRVSYSGRTPKGQRYDYWGQGTQVTVSS” here?
Its value is “high polyreactivity”.

With “QVQLVESGGGLVKAGGRLRLSCAASGSIFKKYAMGWYRQAPGKERELVAAITSGRSTYYADSVKGRFTISRDNAKKTVYLQMNSLKPEDTAVYYCANYRKGSLGSWGQGTQGTVSS” as the sequence, how does the “polyreactivity (PSR sort gate)” value read?
Its value is “high polyreactivity”.

For “QVQLVESGGGLVKAGGSIRLSCAASGSIFYRNTMGWYRQAPRKERQLVAAISKTGGSTYYSDSVKGRFTISRDNAKNTVYVQMNSLKPEDTAVYYCNRAPYALRVLCTGIISGHDYWGQGTQVTVSS”, which “polyreactivity (PSR sort gate)” value is on record?
Its value is “high polyreactivity”.

Which “polyreactivity (PSR sort gate)” value does the source give for “QVQLVESGGGLVKAGGSLRISCAASGRTFGLYAMGWYRQAPGKERELVAAISWGGGRTYYADSVKGRFTISRDNAKNTVYLQMNSLNPEETAVYYCNAVYSPRYYVGGYDYWGQGTLVTVSS” here?
The value was “high polyreactivity”.

For “QVQLVESGGGLVKAGGSLRLSCAASGFIFSLYAMGWYRQAPGKERELVASINRRGTSTFYADSVKGRFTISRDNAKNTVYLQMNSLKPEDTAVYYCNAYPGAAIRSTGRYDYWGQGTQVTVSS”, which “polyreactivity (PSR sort gate)” value is on record?
The value was “low polyreactivity”.

With “QVQLVESGGGLVKAGGSLRLSCAASGFIFYIYAMGWYRQAPGKERELVAAITSGGSTYYADSVKGRFTISRDNAKNTVYLQMNSLKPEDTAVYYCAAESYYGYDYWGQGTQVTVSS” as the sequence, how does the “polyreactivity (PSR sort gate)” value read?
Its value is “low polyreactivity”.

For “QVQLVESGGGLVKAGGSLRLSCAASGFTFNKYAMGWYRQAPGKERESVAAISSSGGSTRYADSVKGRFTISRDNAKNTVYLQMNSLKPADTAVYYCAVYVTPDSGWWLYDYWGQGTHVTVSS”, which “polyreactivity (PSR sort gate)” value is on record?
Its value is “high polyreactivity”.

Which “polyreactivity (PSR sort gate)” value does the source give for “QVQLVESGGGLVKAGGSLRLSCAASGFTFYTYTMGWYRQAPGKERELVAVISRSGGSTYYADSVKGRFTISRDNAKNTVYLQMNSLKPEDTAVYYCNAGYWRFIDSYDYWGQGTQVTVSS” here?
The value was “high polyreactivity”.

With “QVQLVESGGGLVKAGGSLRLSCAASGGIFYRNSMGWYRQAPGKERELVAAISWRGGSTYYADSVKGRFTISRDNAKNTVYLQMNSLKPEDTAVYYCAARSVATYRYDYWGQGTQVTVSS” as the sequence, how does the “polyreactivity (PSR sort gate)” value read?
The value was “high polyreactivity”.

With “QVQLVESGGGLVKAGGSLRLSCAASGIPFTFNAMGWYRQAPGKERELVAAITWSGGSTFYADSVKARFTISRDNAKITVYLQMNSLKQEDTAVYYCARETELYVRWLDYWGQGTQGTVSS” as the sequence, how does the “polyreactivity (PSR sort gate)” value read?
The value was “low polyreactivity”.

Which “polyreactivity (PSR sort gate)” value does the source give for “QVQLVESGGGLVKAGGSLRLSCAASGITFYEYAMGWYRQAPGKERELVAAITTGGTTNYADSVKGRFTISRDNAKNTVYLQMNSLKPEDTAVYYCAKDLDSGGRGYYWGQGTQVTVSS” here?
The value was “low polyreactivity”.

With “QVQLVESGGGLVKAGGSLRLSCAASGLIFAYYDMGWYRQAPGKERELVASITGSGGDTYYADSVKGRFTISRDNAKNTVYLQMNSLKPEDTAVYYCNAYYGAAFTYWDDYWGQGTQVTVSS” as the sequence, how does the “polyreactivity (PSR sort gate)” value read?
Its value is “low polyreactivity”.

With “QVQLVESGGGLVKAGGSLRLSCAASGLTFRNNAMGWYRQAPGIERELVASINSGRSTNYADSVKGRFTISRDNAKNTVYLQMNSLKREDTAVYVCATRYYWYTRDSYDYWGQGTQVTVSS” as the sequence, how does the “polyreactivity (PSR sort gate)” value read?
Its value is “low polyreactivity”.

With “QVQLVESGGGLVKAGGSLRLSCAASGLTFTRYTMGWYRQAPGKERELVAAITSSGGSTYYADSVKGRFTISRDNAKNTVYLQRNSVKPEDTAVYYCAAPYPGTRGDGYWGLGTQVTVSS” as the sequence, how does the “polyreactivity (PSR sort gate)” value read?
Its value is “high polyreactivity”.

With “QVQLVESGGGLVKAGGSLRLSCAASGRIFKIYAMGWYRQAPGKERELVAAISGRGGSTYYADSVKGRFTISRDNAKNTVYLQLNSLKPEDTAVYYCAAVGYGFSAYSTYDYWGQGTQVTVSS” as the sequence, how does the “polyreactivity (PSR sort gate)” value read?
The value was “high polyreactivity”.

Which “polyreactivity (PSR sort gate)” value does the source give for “QVQLVESGGGLVKAGGSLRLSCAASGRIFYLNAMGWYRQAPGKERELVAGIRKRGGSTYYADSVKGRFTISRDNAKNTVYLQMNSLKPEDTAVYYSAGQPALTYRFYYWGQGTQVTVSS” here?
The value was “high polyreactivity”.

For “QVQLVESGGGLVKAGGSLRLSCAASGRNFWFNAMGWYRQAPGKERELVAAIRNRGGSTYYADSVKGRFTISRDNAKNTVYLQMNSLKPEDTAVYYCARAPEGTGGKYGYWGQGTQVTVSS”, which “polyreactivity (PSR sort gate)” value is on record?
The value was “high polyreactivity”.

For “QVQLVESGGGLVKAGGSLRLSCAASGRTFGYYAMGWYRQSPGKERELVADIRQSGGRTYYADSVKGRFRISRDNAKNTVYLQMNSLKPVDTAVYYCAARRSYLAYTYRRSYPMDSWGQGTQVTVSS”, which “polyreactivity (PSR sort gate)” value is on record?
Its value is “high polyreactivity”.

Which “polyreactivity (PSR sort gate)” value does the source give for “QVQLVESGGGLVKAGGSLRLSCAASGRTFVYYAMGWYRQAPGKERELVAAISGSGGSTYYADSVKGRFTISRDNAKNTVYLQMNSLKPEDTAVYYCAAGPRGRYRYGYWGQGTQVTVSS” here?
The value was “high polyreactivity”.

Which “polyreactivity (PSR sort gate)” value does the source give for “QVQLVESGGGLVKAGGSLRLSCAASGSIFDFYVMGWYRQAPGKERELVAAISSGGSTYYADSVKGRFTISRDNAKNTVYIKMNSLKPEDTAVYYCAAYPEYVSGAWYDYWGQGTQVTVSS” here?
The value was “low polyreactivity”.

Which “polyreactivity (PSR sort gate)” value does the source give for “QVQLVESGGGLVKAGGSLRLSCAASGSIFLYYSMGWYRQAPGKERELVAAITGGGCTNYADSEKGRFTISRDHAKNNVYLLMNSLKPEDTSVYYWAADASGQFPYSYYNYDYDYWGQGTQVSVSS” here?
Its value is “low polyreactivity”.
